Test results from article PMC12737678.

Key:
[1] = target: SARS-CoV-2 papain-like protease (PLpro) (SARS-CoV-2)
oxytocin = oxytocin (UniProt P01178); experiment: small-molecule microarray

Chain of oxytocin (P01178 whole entry, looked up): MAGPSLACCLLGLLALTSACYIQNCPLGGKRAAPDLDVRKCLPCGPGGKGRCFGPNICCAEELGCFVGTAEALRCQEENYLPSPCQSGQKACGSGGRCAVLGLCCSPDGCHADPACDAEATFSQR

oxytocin (from UniProt P01178 20-28) (peptide)
IC50 of inhibition of PLpro enzymatic activity (dose-response curve, Figure 5C) [1]: 4.92 µM

SARS-CoV-2 main protease (Mpro) (enzyme)
SNR (signal-to-noise ratio on the microarray) (oxytocin): 5.53

SARS-CoV-2 papain-like protease (PLpro) (enzyme)
SNR (signal-to-noise ratio on the microarray) (oxytocin): 6.52
